Laboratory results: the supplement of paper PMC9112550, “Optimization of the antimicrobial peptide Bac7 by deep mutational scanning” (BMC Biology, 2022)

tested on: Escherichia coli TOP10; test: shrunken log2 fold change of peptide-encoding DNA abundance (4.5 h post-induction vs induction); higher = less antimicrobial activity (less host growth inhibition); conditions: time post-induction: 4.5 h; library: site-saturation at positions 5, 18, 19, 20
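Also: peptides expressed intracellularly from a pBAD plasmid library in pooled LB shake-flask culture, induced with 0.3% L-arabinose, DNA abundance read by NGS, three biological replicates, DESeq2 with apeglm shrinkage.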

| Sequence | shrunken log2 fold change |
| --- | --- |
| RRIRLRPPRLPRPRPRPDYEPRP | -0.645 |
| RRIRLRPPRLPRPRPRPDYWPRP | -0.596 |
| RRIRLRPPRLPRPRPRPECRPRP | 2.41 |
| RRIRLRPPRLPRPRPRPEDEPRP | 0.00911 |
| RRIRLRPPRLPRPRPRPEDTPRP | -0.00686 |
| RRIRLRPPRLPRPRPRPEEFPRP | -0.0121 |
| RRIRLRPPRLPRPRPRPEEKPRP | 0.0262 |
| RRIRLRPPRLPRPRPRPEGKPRP | -0.00133 |
| RRIRLRPPRLPRPRPRPEHFPRP | 0.0339 |
| RRIRLRPPRLPRPRPRPEHMPRP | -0.336 |
| RRIRLRPPRLPRPRPRPEIEPRP | -0.0912 |
| RRIRLRPPRLPRPRPRPEMGPRP | 0.144 |
| RRIRLRPPRLPRPRPRPEMPPRP | 0.365 |
| RRIRLRPPRLPRPRPRPEMSPRP | -0.0316 |
| RRIRLRPPRLPRPRPRPENPPRP | -0.173 |
| RRIRLRPPRLPRPRPRPENWPRP | 0.046 |
| RRIRLRPPRLPRPRPRPEPIPRP | 0.0321 |
| RRIRLRPPRLPRPRPRPEPNPRP | 0.0389 |
| RRIRLRPPRLPRPRPRPEPYPRP | -0.305 |
| RRIRLRPPRLPRPRPRPEQGPRP | 1.07 |
| RRIRLRPPRLPRPRPRPEQRPRP | 0.0422 |
| RRIRLRPPRLPRPRPRPERMPRP | -0.0208 |
| RRIRLRPPRLPRPRPRPERQPRP | 0.0746 |
| RRIRLRPPRLPRPRPRPESEPRP | -0.000997 |
| RRIRLRPPRLPRPRPRPESMPRP | 0.191 |

| Sequence | shrunken log2 fold change |
| --- | --- |
| RRIRLRPPRLPRPRPRPESVPRP | 0.255 |
| RRIRLRPPRLPRPRPRPETKPRP | 0.00291 |
| RRIRLRPPRLPRPRPRPETWPRP | 0.0117 |
| RRIRLRPPRLPRPRPRPETYPRP | -0.215 |
| RRIRLRPPRLPRPRPRPEVFPRP | 0.0607 |
| RRIRLRPPRLPRPRPRPEVQPRP | 0.0654 |
| RRIRLRPPRLPRPRPRPEWIPRP | 0.00477 |
| RRIRLRPPRLPRPRPRPEWQPRP | -0.0018 |
| RRIRLRPPRLPRPRPRPEYTPRP | -0.0657 |
| RRIRLRPPRLPRPRPRPFAPPRP | 0.263 |
| RRIRLRPPRLPRPRPRPFAQPRP | 0.18 |
| RRIRLRPPRLPRPRPRPFCTPRP | -0.105 |
| RRIRLRPPRLPRPRPRPFDDPRP | -0.00884 |
| RRIRLRPPRLPRPRPRPFDPPRP | -0.352 |
| RRIRLRPPRLPRPRPRPFEEPRP | 0.127 |
| RRIRLRPPRLPRPRPRPFEIPRP | 0.0206 |
| RRIRLRPPRLPRPRPRPFENPRP | -0.388 |
| RRIRLRPPRLPRPRPRPFEPPRP | 0.00273 |
| RRIRLRPPRLPRPRPRPFFQPRP | 0.152 |
| RRIRLRPPRLPRPRPRPFFVPRP | -0.168 |
| RRIRLRPPRLPRPRPRPFGIPRP | -0.255 |
| RRIRLRPPRLPRPRPRPFGWPRP | 0.0538 |
| RRIRLRPPRLPRPRPRPFHKPRP | -0.54 |
| RRIRLRPPRLPRPRPRPFIFPRP | -0.356 |
| RRIRLRPPRLPRPRPRPFKIPRP | -0.00613 |

| Sequence | shrunken log2 fold change |
| --- | --- |
| RRIRLRPPRLPRPRPRPFLYPRP | -0.656 |
| RRIRLRPPRLPRPRPRPFNKPRP | -0.324 |
| RRIRLRPPRLPRPRPRPFPPPRP | 0.00271 |
| RRIRLRPPRLPRPRPRPFPSPRP | -0.173 |
| RRIRLRPPRLPRPRPRPFQAPRP | 0.0248 |
| RRIRLRPPRLPRPRPRPFTQPRP | -0.337 |
| RRIRLRPPRLPRPRPRPFTTPRP | 0.0966 |
| RRIRLRPPRLPRPRPRPFTVPRP | 0.0023 |
| RRIRLRPPRLPRPRPRPFWAPRP | 0.0214 |
| RRIRLRPPRLPRPRPRPFWIPRP | -0.283 |
| RRIRLRPPRLPRPRPRPFYYPRP | -0.666 |
| RRIRLRPPRLPRPRPRPGCLPRP | -0.129 |
| RRIRLRPPRLPRPRPRPGCYPRP | -0.115 |
| RRIRLRPPRLPRPRPRPGDEPRP | 0.114 |
| RRIRLRPPRLPRPRPRPGDHPRP | -0.202 |
| RRIRLRPPRLPRPRPRPGEDPRP | 0.121 |
| RRIRLRPPRLPRPRPRPGFQPRP | -0.0314 |
| RRIRLRPPRLPRPRPRPGHEPRP | -0.0844 |
| RRIRLRPPRLPRPRPRPGHRPRP | -0.114 |
| RRIRLRPPRLPRPRPRPGIHPRP | -0.322 |
| RRIRLRPPRLPRPRPRPGKQPRP | 0.0284 |
| RRIRLRPPRLPRPRPRPGKYPRP | -0.282 |
| RRIRLRPPRLPRPRPRPGMGPRP | 0.241 |
| RRIRLRPPRLPRPRPRPGMRPRP | 0.787 |
| RRIRLRPPRLPRPRPRPGNQPRP | -0.0104 |

| Sequence | shrunken log2 fold change |
| --- | --- |
| RRIRLRPPRLPRPRPRPGPDPRP | 0.953 |
| RRIRLRPPRLPRPRPRPGQKPRP | -0.00989 |
| RRIRLRPPRLPRPRPRPGQTPRP | 0.277 |
| RRIRLRPPRLPRPRPRPGRTPRP | 0.292 |
| RRIRLRPPRLPRPRPRPGVCPRP | 0.195 |
| RRIRLRPPRLPRPRPRPGVEPRP | 0.0194 |
| RRIRLRPPRLPRPRPRPGVTPRP | 0.0426 |
| RRIRLRPPRLPRPRPRPGWPPRP | 0.406 |
| RRIRLRPPRLPRPRPRPGYTPRP | -0.349 |
| RRIRLRPPRLPRPRPRPGYYPRP | -0.166 |
| RRIRLRPPRLPRPRPRPHAFPRP | -0.208 |
| RRIRLRPPRLPRPRPRPHAHPRP | -0.506 |
| RRIRLRPPRLPRPRPRPHEGPRP | -0.00992 |
| RRIRLRPPRLPRPRPRPHGRPRP | 0.114 |
| RRIRLRPPRLPRPRPRPHHGPRP | -0.0757 |
| RRIRLRPPRLPRPRPRPHMNPRP | -0.686 |
| RRIRLRPPRLPRPRPRPHPRPRP | 0.276 |
| RRIRLRPPRLPRPRPRPHQRPRP | -0.259 |
| RRIRLRPPRLPRPRPRPHRAPRP | -0.0697 |
| RRIRLRPPRLPRPRPRPHRMPRP | -0.0961 |
| RRIRLRPPRLPRPRPRPHRNPRP | -0.319 |
| RRIRLRPPRLPRPRPRPHSDPRP | -0.175 |
| RRIRLRPPRLPRPRPRPHTEPRP | -0.167 |
| RRIRLRPPRLPRPRPRPHTFPRP | -0.0496 |
| RRIRLRPPRLPRPRPRPHVCPRP | -0.247 |

| Sequence | shrunken log2 fold change |
| --- | --- |
| RRIRLRPPRLPRPRPRPIAKPRP | -0.305 |
| RRIRLRPPRLPRPRPRPIAVPRP | -0.16 |
| RRIRLRPPRLPRPRPRPIFAPRP | 0.331 |
| RRIRLRPPRLPRPRPRPIFSPRP | -0.182 |
| RRIRLRPPRLPRPRPRPIFVPRP | -0.0836 |
| RRIRLRPPRLPRPRPRPIGCPRP | -0.0407 |
| RRIRLRPPRLPRPRPRPIHDPRP | -0.302 |
| RRIRLRPPRLPRPRPRPIHIPRP | -0.374 |
| RRIRLRPPRLPRPRPRPIHMPRP | -0.0933 |
| RRIRLRPPRLPRPRPRPIIQPRP | -0.439 |
| RRIRLRPPRLPRPRPRPIKDPRP | -0.374 |
| RRIRLRPPRLPRPRPRPIKRPRP | -0.466 |
| RRIRLRPPRLPRPRPRPIKVPRP | -0.135 |
| RRIRLRPPRLPRPRPRPILNPRP | -0.389 |
| RRIRLRPPRLPRPRPRPIMCPRP | 0.02 |
| RRIRLRPPRLPRPRPRPIRWPRP | -0.241 |
| RRIRLRPPRLPRPRPRPISAPRP | -0.053 |
| RRIRLRPPRLPRPRPRPISFPRP | -0.158 |
| RRIRLRPPRLPRPRPRPISIPRP | 0.111 |
| RRIRLRPPRLPRPRPRPIVLPRP | -0.345 |
| RRIRLRPPRLPRPRPRPIVMPRP | -0.618 |
| RRIRLRPPRLPRPRPRPIVPPRP | 0.0358 |
| RRIRLRPPRLPRPRPRPIYEPRP | -0.291 |
| RRIRLRPPRLPRPRPRPKAQPRP | -0.00354 |
| RRIRLRPPRLPRPRPRPKDHPRP | -0.123 |

| Sequence | shrunken log2 fold change |
| --- | --- |
| RRIRLRPPRLPRPRPRPKFQPRP | -0.113 |
| RRIRLRPPRLPRPRPRPKHDPRP | -0.0476 |
| RRIRLRPPRLPRPRPRPKIPPRP | -0.292 |
| RRIRLRPPRLPRPRPRPKIQPRP | -0.131 |
| RRIRLRPPRLPRPRPRPKKAPRP | -0.0389 |
| RRIRLRPPRLPRPRPRPKKCPRP | -0.198 |
| RRIRLRPPRLPRPRPRPKKGPRP | -0.166 |
| RRIRLRPPRLPRPRPRPKKSPRP | 0.018 |
| RRIRLRPPRLPRPRPRPKLEPRP | -0.354 |
| RRIRLRPPRLPRPRPRPKLHPRP | 0.108 |
| RRIRLRPPRLPRPRPRPKLWPRP | 0.296 |
| RRIRLRPPRLPRPRPRPKMIPRP | -0.378 |
| RRIRLRPPRLPRPRPRPKPRPRP | 0.729 |
| RRIRLRPPRLPRPRPRPKQIPRP | 0.0389 |
| RRIRLRPPRLPRPRPRPKQTPRP | 0.0369 |
| RRIRLRPPRLPRPRPRPKRAPRP | 0.203 |
| RRIRLRPPRLPRPRPRPKRSPRP | 0.558 |
| RRIRLRPPRLPRPRPRPKVAPRP | -0.0483 |
| RRIRLRPPRLPRPRPRPKVCPRP | 0.0264 |
| RRIRLRPPRLPRPRPRPKYGPRP | -0.364 |
| RRIRLRPPRLPRPRPRPLAGPRP | 0.0705 |
| RRIRLRPPRLPRPRPRPLAHPRP | -0.174 |
| RRIRLRPPRLPRPRPRPLCGPRP | 0.161 |
| RRIRLRPPRLPRPRPRPLCMPRP | -0.467 |
| RRIRLRPPRLPRPRPRPLCWPRP | 0.487 |
